Experiments:
GST–Cdc14p = molecular target: T1, GST–Cdc14p (budding yeast, UniProt Q00684 1-551); assay: pull-down
T1 sequence: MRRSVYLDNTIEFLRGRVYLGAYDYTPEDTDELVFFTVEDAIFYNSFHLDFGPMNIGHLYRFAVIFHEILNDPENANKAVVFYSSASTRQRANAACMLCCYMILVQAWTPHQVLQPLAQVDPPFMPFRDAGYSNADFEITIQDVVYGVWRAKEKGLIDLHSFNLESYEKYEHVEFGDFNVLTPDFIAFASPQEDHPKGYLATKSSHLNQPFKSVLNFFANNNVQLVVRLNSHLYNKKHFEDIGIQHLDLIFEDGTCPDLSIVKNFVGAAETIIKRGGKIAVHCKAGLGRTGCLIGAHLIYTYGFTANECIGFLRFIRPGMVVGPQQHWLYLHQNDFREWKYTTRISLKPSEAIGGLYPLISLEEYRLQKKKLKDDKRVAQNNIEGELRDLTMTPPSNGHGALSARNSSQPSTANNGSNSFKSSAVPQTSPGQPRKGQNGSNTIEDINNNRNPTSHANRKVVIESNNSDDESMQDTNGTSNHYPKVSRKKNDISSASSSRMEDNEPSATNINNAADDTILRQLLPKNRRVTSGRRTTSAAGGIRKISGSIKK

6His–Cdc14p = molecular target: T2, 6His–Cdc14p (budding yeast, UniProt Q00684 1-551); assay: pull-down
T2 sequence: T1 sequence

B1: 6His–Tem1p (natural protein)
chain: MATPSTGANNSIPAVRNQVEVQVGLVGDAQVGKTSLMVKYVQNIYDKEYTQTLGVNFLKRKVSIRSTDIIFSIMDLGGQREFINMLPIATVGSSVIIFLFDLTRPETLSSIKEWYRQAYGLNDSAIPILVGTKYDLLIDLDPEYQEQISRTSMKYAQVMNAPLIFCSTAKSINIQKIFKIALAKIFNLTLTIPEINEIGDPLLIYKHLGGQQHRHHNKSQDRKSHNIRKPSSSPSSKAPSPGVNT
- binding result (GST–Cdc14p): binds

B2: GST–Bfa1p^1–394 (domain or fragment)
chain: MSIRPLTLNGLDEPETSFEELNTTLPRFQSHETLTLEENVPPLSTSTYIPPPSSVGTSDTGTVFSNSTSAFWSNKQADDDQDMEVDQDDEFLNDFQEFQNKKDDFDDAIKTNFHLRNGCRTGPFKNDIFAEEFDRKLSLEDKPRLKQPRSMMELKPKRKLSNSVTSRNLRSGNSVRFKKSMPNLALVNPAIREEEEDEEREREDQREFNYKIDNDTQDTILAKFSSDDEGDFLTGFEELEGEAIDETISSNDKESADHPRFLKKSSSSLPLKISPAQYDIVKHDELLTPGLHRRQRDWNTQQELDSFKEKRSVRHCSNQNVQLNGPAKIKTIKQQIDHNTPMKKGSMIYNPKTMKWEGNENVLSKFSDVDTANRKALLIKNKLQRDADSKKQKY
- binding result (6His–Cdc14p): binds

— publication PMC2173300 (The Journal of Cell Biology, 2002)
